The values that follow come from paper PMC11401910, “Dual client binding sites in the ATP-independent chaperone SurA” (Nature Communications, 2024).

Common to all, as to details: both partners purified
Assay [1] addresses T1, SurA-WT (E. coli, UniProt P0ABZ6 21-428).
T1 construct: no cleavage step is described; For NMR the protein was made in D2O medium with 13C labels on Ile delta1 and Met epsilon methyls; also called wild-type SurA; apo-SurA; source: E. coli BL21(DE3), purified (HisTrap, dialysis)
T1 sequence (looked up): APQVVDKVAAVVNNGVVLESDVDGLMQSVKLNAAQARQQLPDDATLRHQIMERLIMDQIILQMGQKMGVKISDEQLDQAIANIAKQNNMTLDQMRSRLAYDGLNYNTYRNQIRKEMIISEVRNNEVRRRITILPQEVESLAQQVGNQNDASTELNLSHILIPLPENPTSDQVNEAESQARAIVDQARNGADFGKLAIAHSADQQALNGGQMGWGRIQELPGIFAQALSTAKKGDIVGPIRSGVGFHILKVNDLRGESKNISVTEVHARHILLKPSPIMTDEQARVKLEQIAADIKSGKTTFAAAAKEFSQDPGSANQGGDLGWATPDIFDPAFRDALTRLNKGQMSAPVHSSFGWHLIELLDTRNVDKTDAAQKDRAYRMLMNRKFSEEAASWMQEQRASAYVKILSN
Put plainly: FRET or BRET; single-molecule FRET (pulsed interleaved excitation) between donor and acceptor on the two termini of unfolded OmpX (~75 pM) with 30 μM SurA-WT or SurA-core; 20 mM Tris-HCl, 0.1 M urea, 0.02% Tween-20, 1 mM aged Trolox, pH 8.0, ~21 °C; binding is read from the change of the client's own FRET distribution.

Assay [2] addresses T2, SurA-core (E. coli, UniProt P0ABZ6 21-428, deleting codons for residues 172–389).
T2 construct: gene numbering including the signal peptide; no cleavage step described; also called core domain; construct lacking both PPIase domains; source: E. coli BL21(DE3), purified (HisTrap, dialysis)
T2 sequence (looked up): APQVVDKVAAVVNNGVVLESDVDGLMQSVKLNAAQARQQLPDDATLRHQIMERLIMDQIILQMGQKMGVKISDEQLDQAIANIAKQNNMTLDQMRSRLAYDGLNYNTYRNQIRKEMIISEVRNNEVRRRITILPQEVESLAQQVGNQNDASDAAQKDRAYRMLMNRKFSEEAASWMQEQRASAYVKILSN
Described as above.

For assay [3], the target named is T1, SurA-WT. The experiment in a line: NMR titration; methyl-TROSY (2D 1H-13C SOFAST-HMQC) of Ile/Met 13CH3-labelled SurA-WT, single point: 5 µM SurA and 5 µM unfolded OMP; 5 mM EDTA, 20 mM Tris-HCl, pH 8.0, 0.8 M urea, 25 °C; peak intensities and CSPs.
For assay [4], the target named is T1, SurA-WT. Put plainly: MST; 100 nM Alexa Fluor 488-labelled tBamA or OmpX, SurA-WT or SurA-core in serial dilution (40 μM–1.2 nM for tBamA, 12.5 μM–3 nM for OmpX); 0.8 M urea, 20 mM Tris-HCl, pH 8.0, 25 °C; fitted to a Hill equation, apparent Kd.
Assay [5] concerns the target T2, SurA-core. Described as above.

B1: Cys-OmpX-Cys labelled with Alexa Fluor 488 and ATTO 565 (natural protein)
chain: MGSCATSTVTGGYAQSDAQGQMNKMGGFNLKYRYEEDNSPLGVIGSFTYTEKSRTASSGDYNKNQYYGITAGPAYRINDWASIYGVVGVGYGKFQTTEYPTYKHDTSDYGFSYGAGLQFNPMENVALDFSYEQSRIRSVDVGTWIAGVGYRFC
modifications: Alexa Fluor 488 and ATTO 565 via maleimide on the N- and C-terminal Cys residues (stochastic labelling)
notes: additional C-terminal Cys residue; Unfolded client in 0.1 M urea; also called OmpX (smFRET); FRET-labelled OmpX; source: E. coli BL21[DE3], inclusion bodies, purified; labelled by maleimide chemistry
For the molecule B1, the binding result with SurA-WT [1] and with SurA-core [2] was “binds” each time.

B2: OmpF (natural protein, UniProt P02931 23-362, looked up)
chain: AEIYNKDGNKVDLYGKAVGLHYFSKGNGENSYGGNGDMTYARLGFKGETQINSDLTGYGQWEYNFQGNNSEGADAQTGNKTRLAFAGLKYADVGSFDYGRNYGVVYDALGYTDMLPEFGGDTAYSDDFFVGRVGGVATYRNSNFFGLVDGLNFAVQYLGKNERDTARRSNGDGVGGSISYEYEGFGIVGAYGAADRTNLQEAQPLGNGKKAEQWATGLKYDANNIYLAANYGETRNATPITNKFTNTSGFANKTQDVLLVAQYQFDFGLRPSIAYTKSKAKDVEGIGDVDLVNYFEVGATYYFNKNMSTYVDYIINQIDSDNKLGVGSDDTVAVGIVYQF
notes: Unfolded client (0.8 M urea); source: E. coli BL21[DE3], inclusion bodies, purified in 6 M Gdn-HCl (Superdex 75)
As for B2, the binding result with SurA-WT [3] is on record as “binds”.

B3: tOmpA (domain or fragment, UniProt P0A910 22-192, looked up)
chain: APKDNTWYTGAKLGWSQYHDTGFINNNGPTHENQLGAGAFGGYQVNPYVGFEMGYDWLGRMPYKGSVENGAYKAQGVQLTAKLGYPITDDLDIYTRLGGMVWRADTKSNVYGKNHDTGVSPVFAGGVEYAITPEIATRLEYQWTNNIGDAHTIGTRPDNGMLSLGVSYRFG
notes: as for B2
Consider B3, for which the binding result with SurA-WT [3] is on record as “binds”.

B4: Cys-OmpX labelled with Alexa Fluor 488 (natural protein)
chain: MGSCATSTVTGGYAQSDAQGQMNKMGGFNLKYRYEEDNSPLGVIGSFTYTEKSRTASSGDYNKNQYYGITAGPAYRINDWASIYGVVGVGYGKFQTTEYPTYKHDTSDYGFSYGAGLQFNPMENVALDFSYEQSRIRSVDVGTWIAGVGYRF
modifications: Alexa Fluor 488 on the N-terminal Cys
notes: lacks the C-terminal Cys of Cys-OmpX-Cys; The MST methods say only 'Alexa Fluor 488-labelled OmpX'; also called Alexa Fluor 488-labelled OmpX; OmpX (MST); source: E. coli BL21[DE3], inclusion bodies, purified; labelled by maleimide chemistry
On to B4, for which the binding result with SurA-WT [4] and with SurA-core [5] was “binds” throughout.

B5: OmpX (natural protein, UniProt P0A917 24-171, looked up)
chain: ATSTVTGGYAQSDAQGQMNKMGGFNLKYRYEEDNSPLGVIGSFTYTEKSRTASSGDYNKNQYYGITAGPAYRINDWASIYGVVGVGYGKFQTTEYPTYKHDTSDYGFSYGAGLQFNPMENVALDFSYEQSRIRSVDVGTWIAGVGYRF
notes: Unfolded client in the assay (0.8 M urea); Cloned at the NdeI site, so a start Met probably precedes residue 24; also called unfolded OmpX; full-length OmpX; source: E. coli BL21[DE3], inclusion bodies, purified in 6 M Gdn-HCl (Superdex 75)
In the case of B5, the binding result with SurA-WT [3] was “binds”.
